Assay [1] has as its target T1, HCoV-OC43 spike protein (HCoV-OC43, UniProt P36334 14-1297).
T1 sequence: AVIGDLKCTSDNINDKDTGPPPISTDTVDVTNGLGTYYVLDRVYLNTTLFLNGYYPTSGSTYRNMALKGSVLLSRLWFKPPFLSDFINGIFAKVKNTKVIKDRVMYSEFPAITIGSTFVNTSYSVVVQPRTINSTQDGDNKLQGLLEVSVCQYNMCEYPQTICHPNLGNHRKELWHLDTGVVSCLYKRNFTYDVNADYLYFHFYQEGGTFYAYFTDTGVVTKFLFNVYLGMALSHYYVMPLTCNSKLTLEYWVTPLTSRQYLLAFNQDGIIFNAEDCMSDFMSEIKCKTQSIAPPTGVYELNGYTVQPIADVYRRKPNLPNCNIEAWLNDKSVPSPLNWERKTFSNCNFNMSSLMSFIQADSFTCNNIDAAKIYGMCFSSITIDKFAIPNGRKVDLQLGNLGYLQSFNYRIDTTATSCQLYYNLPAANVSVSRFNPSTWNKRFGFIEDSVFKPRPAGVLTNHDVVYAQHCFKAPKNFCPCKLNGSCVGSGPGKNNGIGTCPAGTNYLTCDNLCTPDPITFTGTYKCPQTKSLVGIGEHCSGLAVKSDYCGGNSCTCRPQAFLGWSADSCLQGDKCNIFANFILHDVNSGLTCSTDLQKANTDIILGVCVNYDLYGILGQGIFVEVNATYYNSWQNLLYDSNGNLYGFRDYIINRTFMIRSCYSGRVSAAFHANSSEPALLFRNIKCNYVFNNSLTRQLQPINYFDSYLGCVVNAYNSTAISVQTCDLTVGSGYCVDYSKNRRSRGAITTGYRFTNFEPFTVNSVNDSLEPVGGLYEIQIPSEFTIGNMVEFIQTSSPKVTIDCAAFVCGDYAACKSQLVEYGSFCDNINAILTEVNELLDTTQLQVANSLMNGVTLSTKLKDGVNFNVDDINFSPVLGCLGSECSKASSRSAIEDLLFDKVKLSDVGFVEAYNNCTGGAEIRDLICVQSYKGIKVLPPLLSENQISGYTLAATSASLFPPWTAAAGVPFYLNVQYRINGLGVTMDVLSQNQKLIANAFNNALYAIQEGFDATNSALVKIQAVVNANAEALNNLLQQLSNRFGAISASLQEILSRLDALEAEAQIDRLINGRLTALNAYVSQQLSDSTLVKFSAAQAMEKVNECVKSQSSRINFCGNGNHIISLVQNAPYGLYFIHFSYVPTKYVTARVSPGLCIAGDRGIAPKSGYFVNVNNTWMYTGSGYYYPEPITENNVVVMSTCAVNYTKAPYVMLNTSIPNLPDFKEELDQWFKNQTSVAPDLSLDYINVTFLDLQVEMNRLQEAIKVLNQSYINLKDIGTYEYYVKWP
Put plainly: bead flow cytometry, AUC minus CD4. (In general: A flow cytometer gives signals particle by particle.)

The target in assay [2] is T2, SARS-CoV-2 spike S2 subunit, recombinant (SARS-CoV-2, UniProt P0DTC2 686-1213).
T2 construct: domain: S2 subunit
Put plainly: bead flow cytometry, AUC minus CD4.

The values that follow come from US20250145690A1 (US Dept. of Health and Human Services, published 2025).

B1: COV23-01 (antibody, V domains shown)
VH: QVTLKESGPVLVKPTETLTLTCTVSGFSLSNTKMGVSWIRQPPGKALEWLAHIFSNDRKSYTTSLKSRLTISEDTSKSQIVLTMTNMDPVDTATYYCARIGAGGTYNFYYYMDVWGKGTTVTVSS
VL: EIVLTQSPATLSLSPGERATLSCRASQSVSSYLAWYQQKPGQAPRLLIYDASNRATGIPARFSGSGSGTDFTLTISSLEPEDFAVYYCQQRSLYYTFGQGTKLEIK
B1: the binding result in assay [1] was “no binding (tested: 200 µg/mL)”.

B2: COV49-54 (antibody, V domains shown)
VH: EVQLVESGGGLVQPGGSLRLSCAASGFIVSSNYMSWVRQAPGKGLEWVSMIYSGGSTVYADSVKGRFTISRDISKNTLYLQMNSLRAEDTAVYYCALETFDYWGQGTLVTVSS
VL: DIQMTQSPSSLSASVGDRVTITCRASQGITNHLAWYQQKPGKVPKLLIYAASTLQSGVPSRFSGSGYGTDFTLTISSLQPEDVASYYCQKYDSAPRTFGQGTKVEIK
Regarding B2, the binding result in assay [2] is given as “no binding (tested: 200 µg/mL)”.
